Test: yeast display, Sf9 membrane polyspecificity reagent, FACS + sequencing; frameworks hold sequencing errors
Outline: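 In a synthetic yeast display library (Saccharomyces cerevisiae BJ5465), nanobody expression was induced with galactose for 36–48 hours. FACS gates were set low and high (top ~1%) using anti-HA fluorescence for expression and streptavidin fluorescence for binding of the Sf9 membrane reagent. Each polyreactivity label is drawn from the gate of origin.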

Row | Sequence | polyreactivity (PSR sort gate)
1 | QVQLVESGGGLVQAGGSLRLSCAASGFTFRRNAMGWYLQAPGKERELVARISSGGSTNYADSVKGRFTISRDNAKNTVYLQMNSLKPEDSAVYYCATGKGPYPYRQRYGYWGQGTKVTVSS | high polyreactivity
2 | QVQLVESGGGLVQAGGSLRLSCAASGFTFRRNAMGWYRQAPGKERELVAAISSGGGTYYADSVKGRFTISRDNAKNTLYLQMNSLKPEETAVYYCNAAGQVRKYGYWGQGTEVTVSS | high polyreactivity
3 | QVQLVESGGGLVQAGGSLRLSCAASGFTFRRNAMRWYRQAPGKEWELVAAINFRDGSTYYADSLKGRFTISRDNAMIHVYLQMHSLKPEDSAVYYRAAVYYVRDRYDYWGQGTQETVSS | high polyreactivity
4 | QVQLVESGGGLVQAGGSLRLSCAASGFTFRRYAMGWYRQAPGKERELVAAISYGGGRTYYAESVKGRFTISRDNAKNTVYLQMNSLKPEDTAVYYCAADVLSRYVGEADYWGQGTQVTVSS | high polyreactivity
5 | QVQLVESGGGLVQAGGSLRLSCAASGFTFRRYAMGWYRQAPGKERELVAAITRTGAGTYYADSVKGRFTISRDNAKNTVYLQMNSLKPEDTAVYYCAAAFYYASAMDYWGQGTQVTVSS | high polyreactivity
6 | QVQLVESGGGLVQAGGSLRLSCAASGFTFRRYAMGWYRQAPGKERELVARISFNGGSTFYADSVKGRFTISRDNAKNTVYLQMNSLKPEDTAVYYCAAVFGGRSLSRTYGYDYWGQGTQVTVSS | high polyreactivity
7 | QVQLVESGGGLVQAGGSLRLSCAASGFTFRRYAMGWYRQAPWKESELVAAITRDGITNYAASVKGRFTLSRDNAKNTVYFQMNILKPEDTAVYYCARRTGRARLDYWGQGTQVSVSS | high polyreactivity
8 | QVQLVESGGGLVQAGGSLRLSCAASGFTFRRYDMGWYRQAPGKERELVATLNRGGSTDYADSVKGRFTISRDNAKNTVYFQLNSLKPEETAVYYCATRYYSSRNWSEYYYWGQGTQVTVSS | high polyreactivity
9 | QVQLVESGGGLVQAGGSLRLSCAASGFTFRSYAMGWYRQAPGKERELVAAISSGGSTYYADSVKGRFTISRDNAKNTVYLQMNSLKPEDTAVYYCAARRYYGYGHWGQGTQVNVSS | high polyreactivity
10 | QVQLVESGGGLVQAGGSLRLSCAASGFTFRSYAMGWYRQAPGKERELVADISIRGGGTYYADTVKGRFTISRDNAKNTVYLQMNSLKPEDTAVYYCAAERYKPFLWPRYDYWGQGTQVTVSS | low polyreactivity
11 | QVQLVESGGGLVQAGGSLRLSCAASGFTFRSYAMGWYRQAPGKERELVASISPGATTKYADSVKGRFTISRDNAKNTVYLQMNSLKPEDTAVYYYEVYQILVRRLSYWGQGTQVTVSC | high polyreactivity
12 | QVQLVESGGGLVQAGGSLRLSCAASGFTFRTYAMGWYRQAPGKERELVAAINTGGGTNYADSVKGRFTISRDNAKNTVYLQMNSLKPEDTAVYFCNAVHYYYYYWYSLYDSWGKGTQVTVSS | high polyreactivity
13 | QVQLVESGGGLVQAGGSLRLSCAASGFTFRTYAMGWYRQAPGKERELVADISGSGGSTYYADSVKGRFTISRDNAKNTVYLQMISLKPEDTAVYYCAATIYNWGYEREYWGQGTQVTVSS | high polyreactivity
14 | QVQLVESGGGLVQAGGSLRLSCAASGFTFRWYAMGWYRQAPGKERELVAAISTTGGSTYYADSVKGRFTISRDNAKNTVYFQLNSLKPEDTAVYYCNVYSGRYWESHKFDSWGQGTQVTVSS | high polyreactivity
15 | QVQLVESGGGLVQAGGSLRLSCAASGFTFRWYAMGWYRQAPGKERELVAAITHSGGSTYYADSVKGRFTISRDNAKNTVYLQMNSLKPEDTAVYYCAAGYIRKYSAFRYNYWGQGTQVTVSS | high polyreactivity
16 | QVQLVESGGGLVQAGGSLRLSCAASGFTFRWYAMGWYRQAPGKERELVADITRHGGSTYYADSVKGRFTISRDNAKNTVYLQMNSLKPEDTAVYYCAKQNETPWQAYYFDWPEFDYWGQGTQVTVSS | low polyreactivity

Row | Sequence | polyreactivity (PSR sort gate)
17 | QVQLVESGGGLVQAGGSLRLSCAASGFTFRWYAMGWYRQAPGKETELVAAISRDGSTNYADSVKGRFTISRDNAKNTVYLQMNSLKPEDTAFYYCATDSYPWGRSTGWRKQKGYYWGQGTKVTVSS | high polyreactivity
18 | QVQLVESGGGLVQAGGSLRLSCAASGFTFRWYDMGWYRQAPGKERELVAVISRSGGRTYYADSVKGRFTISRDNAKNTVYLQMNSLKPEDTAVYYCAADWWGYDGRYDYWGQGTQVTVSS | high polyreactivity
19 | QVQLVESGGGLVQAGGSLRLSCAASGFTFRWYTMGWYRQAPGKERELVAAISWSGTSTYYADSVKGRFTISRDNAKNTVYLQMNSLKPEDTAVYYCAAADFYYTGADDYWGQGTQVTVSS | high polyreactivity
20 | QVQLVESGGGLVQAGGSLRLSCAASGFTFRWYTMGWYRQAPGKERELVASINWSTGSTYYADSVKGRFTISRDNAKNTVYLQMNSLKPEDTAVYYCAATAWYNSYFGLDYWGQGTQVTVSS | high polyreactivity
21 | QVQLVESGGGLVQAGGSLRLSCAASGFTFRYNAMGWYRQAPGKERELVAAITNSGGGTYYADSVKGRFTISRDNAKNTVYLQMNSLKPEDTAVYYCNAKRTNRYVWGKYDYWGQGTQVTVSS | high polyreactivity
22 | QVQLVESGGGLVQAGGSLRLSCAASGFTFRYNAMGWYRQAPGKERELVASITYSGGTTTYADSVKGRFTISRDNAKNTVYLQMNSLKPEDTAVYYCAARGYFSGYRVYYWGQGTQVTVSS | high polyreactivity
23 | QVQLVESGGGLVQAGGSLRLSCAASGFTFRYYAMGWDRQAPGKERDWVAAITRRGGSTYYSDSVKGRFTISRDNAKNTVYLLMNSLKPEDTAVYYCAASLWTTSADYDYWGQGTQVTVSS | high polyreactivity
24 | QVQLVESGGGLVQAGGSLRLSCAASGFTFRYYAMGWYRQAAGKDRELVAAISSGGRTYYADSVKGRFKISRDNAKNTVYLQMNSLKPADTAVYYCNASRHFRRVEYDYWGQGTQVTVSS | high polyreactivity
25 | QVQLVESGGGLVQAGGSLRLSCAASGFTFRYYAMGWYRQAPGKERELVAAIDWSGGSTYYADSVKGRFTISRDNAKNTVYLQMNSLKPEDTAVYYCNAVLVPREYYSWGQGTQVTVSS | low polyreactivity
26 | QVQLVESGGGLVQAGGSLRLSCAASGFTFRYYAMGWYRQAPGKERELVAAISKSGGSTYYADSVKGRFTISRDNAKNTVYLQMNSLKPEDTAVYYCAARNWFSYYQIMDYWGQGTQVTVSS | high polyreactivity
27 | QVQLVESGGGLVQAGGSLRLSCAASGFTFRYYAMGWYRQAPGKERELVAAISKSGGSTYYADSVKGRFTISRDNAKNTVYLQMNSLKPEDTGVFYCAADYAHIGYDYDYWGQGTQVTVSS | high polyreactivity
28 | QVQLVESGGGLVQAGGSLRLSCAASGFTFRYYAMGWYRQAPGKERELVAAISRSDSRTYADSVKGRFTISRDNAKNTVYLQMTSLNPEDTAVYYCAARIRPLYANVRYGYWGQGTQVTVSS | high polyreactivity
29 | QVQLVESGGGLVQAGGSLRLSCAASGFTFRYYAMGWYRQAPGKERELVAAISSRGGTTYYADSVKGRFTISRDNAKNTVYLQMNSLKPEDTAVYYCAAVRPPSYYYWGQGTQVTVSS | high polyreactivity
30 | QVQLVESGGGLVQAGGSLRLSCAASGFTFRYYTMGWYRQAPGKEREFVAAIRGGGSSTYYADSVKGRFTISRDNAKNTVYLQMTSLKPEDTAVYSCAAVTSQLYGYRYYYGGQGTQVTVSS | high polyreactivity
31 | QVQLVESGGGLVQAGGSLRLSCAASGFTFRYYTMGWYRQAPGKERELVASISRRGGSTYYADSVKGRFTISRDNAKNTVYLQMNSLKPEDTAVYYCNTLSQVFASRAPKFDYWGHGTQVTVSS | high polyreactivity
32 | QVQLVESGGGLVQAGGSLRLSCAASGFTFSDNAMGWYRQAPGKDRELVAAISRSGGNTHYADSVKGRFTISRDNAKNTVYFQMNSLKPEDTAVYYCAARVQGRGYGYYYWGQGTQVSVSS | high polyreactivity

Source: the nanobody polyreactivity screen of Harvey et al. (2022)
